Source: publication PMC7938106, “In vitro complex formation of human PYRIN domain-only protein 3 prevented by self-oligomerization of ASC PYD domain” (Saudi Journal of Biological Sciences, 2021)

Biological target: the molecule itself
Assay: SEC-MALS; POP3 PYD (1-83) alone on column HR 10/30 in 20 mM Tris-HCl pH 8.0, 150 mM NaCl; three-angle light scattering and refractive index detectors, ASTRA software

B1: PYD domain of PYRIN Domain-Only Protein 3 (POP3), amino acids 1-83 (domain or fragment, human, UniProt W6CW81 1-83, looked up)
chain: MESKYKEILLLTSLDNITDEELDRFKCFLPDEFNIATGKLHTLNSTSSQLDLKRWHGVCSEEDRIFQKLNYMLVAKCLREEQE
notes: PYRIN domain-only protein 3 (POP3), human, PYD domain, residues 1-83 of the 113-residue protein; The vector probably adds linker residues before the His6; also called POP3 PYD (1-83 aa); POP3PYD; not shown: His6, C-terminal, kept
- stoichiometry N: 2
